Measurements published in publication PMC9351452 (Proceedings of the National Academy of Sciences of the …, 2022).
Read-outs that look alike come from different tables or passages of the source. One block for each compound: values may come before it.

Legend:
[1] = target: double-cubane cluster protein (DCCP); assay: SEC
[2] = target: double-cubane cluster protein (DCCP); assay: SEC; remark: listed apart in the source
[3] = target: T1, DCCP-R (double-cubane cluster protein reductase) (Carboxydothermus hydrogenoformans, UniProt Q3AET8); assay: isothermal titration calorimetry; assay type: binding
T1 sequence (Q3AET8 1-245): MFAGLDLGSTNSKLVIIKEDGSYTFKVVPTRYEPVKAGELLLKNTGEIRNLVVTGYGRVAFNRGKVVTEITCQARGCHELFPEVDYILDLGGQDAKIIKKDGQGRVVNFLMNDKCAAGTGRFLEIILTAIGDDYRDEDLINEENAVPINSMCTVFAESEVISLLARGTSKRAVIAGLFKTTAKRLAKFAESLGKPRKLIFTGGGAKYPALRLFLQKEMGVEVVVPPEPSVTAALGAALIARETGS

DCCP:DCCP-R complex = target: T2, DCCP:DCCP-R complex (Carboxydothermus hydrogenoformans, UniProt Q3AET8); assay: isothermal titration calorimetry; assay type: binding; conditions: Mg2+; 50 mM Tris-HCl pH 8.0, 25 °C, anoxic; DCCP present in cell; reduced DCCP-R
T2 sequence (Q3AET8 1-245): T1 sequence (Q3AET8 1-245)
T2 sequence (Q3AET9 1-421 partner): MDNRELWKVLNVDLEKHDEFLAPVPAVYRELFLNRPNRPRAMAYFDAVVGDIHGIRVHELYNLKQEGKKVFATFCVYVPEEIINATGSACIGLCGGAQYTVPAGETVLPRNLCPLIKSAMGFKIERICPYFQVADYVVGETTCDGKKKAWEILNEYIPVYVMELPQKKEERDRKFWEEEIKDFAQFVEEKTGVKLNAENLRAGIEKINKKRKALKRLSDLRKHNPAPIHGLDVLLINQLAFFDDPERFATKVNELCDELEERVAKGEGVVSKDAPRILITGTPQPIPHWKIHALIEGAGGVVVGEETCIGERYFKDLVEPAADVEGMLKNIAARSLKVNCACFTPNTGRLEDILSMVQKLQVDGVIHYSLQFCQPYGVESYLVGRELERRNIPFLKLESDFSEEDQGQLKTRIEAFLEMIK

[4] = target: double-cubane cluster protein reductase (DCCP-R) from Carboxydothermus hydrogenoformans (Carboxydothermus hydrogenoformans); assay: SEC
[5] = target: double-cubane cluster protein (DCCP); assay: ITC
[6] = target: double-cubane cluster protein reductase (DCCP-R); assay: SEC
[7] = target: double-cubane cluster protein (DCCP); assay: ITC; remark: listed apart in the source

Kd [3]: 42 ± 7 µM
Compound: Nc1ncnc2c1ncn2[C@@H]1O[C@H](COP(=O)(O)OP(=O)(O)O)[C@@H](O)[C@H]1O [MgADP]

Kd [3]: 15 ± 0.5 µM
Kd (DCCP:DCCP-R complex): 7.1 ± 1.1 µM
Compound: Nc1ncnc2c1ncn2[C@@H]1O[C@H](COP(=O)(O)OP(=O)(O)NP(=O)(O)O)[C@@H](O)[C@H]1O [MgADPNP, 5′-adenylyl β, γ-imidodiphosphate]

Further lines, the compound ahead of its results:

Compound: double-cubane cluster protein (DCCP) (enzyme)
stoichiometry N [1]: 2
stoichiometry N [2]: 2

Compound: double-cubane cluster protein reductase (DCCP-R) from Carboxydothermus hydrogenoformans (enzyme)
stoichiometry N [4]: 2

Compound: double-cubane cluster protein reductase (DCCP-R) (enzyme)
dH [5]: -31.5 kcal/mol
stoichiometry N [6]: 2
dH [7]: 5.9 kcal/mol
